Measurements published in patent US20110052564.

Legend:
[1] = target: non-treated H5 of H5N1 strain A/Vietnam/1203/04 (nH5), Protein Sciences
[2] = target: misfolded H5 of H5N1 strain A/Vietnam/1203/04, cH5-1
[3] = target: misfolded H5 of H5N1 strain A/Vietnam/1203/04, cH5-3
[4] = target: misfolded H5 of H5N1 strain A/Vietnam/1203/04, cH5-2
[5] = target: T1, crossbeta dOVA-3, ovalbumin at 1 mg/ml in PBS incubated about 16 h at 75 C, P01012
T1 chain: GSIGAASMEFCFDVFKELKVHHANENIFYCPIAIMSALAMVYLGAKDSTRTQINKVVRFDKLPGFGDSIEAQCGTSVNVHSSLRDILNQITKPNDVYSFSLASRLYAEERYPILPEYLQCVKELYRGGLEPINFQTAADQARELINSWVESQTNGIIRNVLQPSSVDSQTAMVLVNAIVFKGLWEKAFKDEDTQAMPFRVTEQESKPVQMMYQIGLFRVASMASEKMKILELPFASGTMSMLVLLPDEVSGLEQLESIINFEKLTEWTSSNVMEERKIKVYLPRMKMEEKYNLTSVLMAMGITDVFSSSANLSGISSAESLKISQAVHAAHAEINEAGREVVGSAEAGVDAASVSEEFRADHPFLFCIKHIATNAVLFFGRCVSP

[6] = target: crossbeta factor VIII form 12, Helixate kept at 37 C for 1 week, P00451
crossbeta factor VIII form 12, Helixate kept at 37 C for 1 week, P00451, sequence (P00451 whole entry, looked up): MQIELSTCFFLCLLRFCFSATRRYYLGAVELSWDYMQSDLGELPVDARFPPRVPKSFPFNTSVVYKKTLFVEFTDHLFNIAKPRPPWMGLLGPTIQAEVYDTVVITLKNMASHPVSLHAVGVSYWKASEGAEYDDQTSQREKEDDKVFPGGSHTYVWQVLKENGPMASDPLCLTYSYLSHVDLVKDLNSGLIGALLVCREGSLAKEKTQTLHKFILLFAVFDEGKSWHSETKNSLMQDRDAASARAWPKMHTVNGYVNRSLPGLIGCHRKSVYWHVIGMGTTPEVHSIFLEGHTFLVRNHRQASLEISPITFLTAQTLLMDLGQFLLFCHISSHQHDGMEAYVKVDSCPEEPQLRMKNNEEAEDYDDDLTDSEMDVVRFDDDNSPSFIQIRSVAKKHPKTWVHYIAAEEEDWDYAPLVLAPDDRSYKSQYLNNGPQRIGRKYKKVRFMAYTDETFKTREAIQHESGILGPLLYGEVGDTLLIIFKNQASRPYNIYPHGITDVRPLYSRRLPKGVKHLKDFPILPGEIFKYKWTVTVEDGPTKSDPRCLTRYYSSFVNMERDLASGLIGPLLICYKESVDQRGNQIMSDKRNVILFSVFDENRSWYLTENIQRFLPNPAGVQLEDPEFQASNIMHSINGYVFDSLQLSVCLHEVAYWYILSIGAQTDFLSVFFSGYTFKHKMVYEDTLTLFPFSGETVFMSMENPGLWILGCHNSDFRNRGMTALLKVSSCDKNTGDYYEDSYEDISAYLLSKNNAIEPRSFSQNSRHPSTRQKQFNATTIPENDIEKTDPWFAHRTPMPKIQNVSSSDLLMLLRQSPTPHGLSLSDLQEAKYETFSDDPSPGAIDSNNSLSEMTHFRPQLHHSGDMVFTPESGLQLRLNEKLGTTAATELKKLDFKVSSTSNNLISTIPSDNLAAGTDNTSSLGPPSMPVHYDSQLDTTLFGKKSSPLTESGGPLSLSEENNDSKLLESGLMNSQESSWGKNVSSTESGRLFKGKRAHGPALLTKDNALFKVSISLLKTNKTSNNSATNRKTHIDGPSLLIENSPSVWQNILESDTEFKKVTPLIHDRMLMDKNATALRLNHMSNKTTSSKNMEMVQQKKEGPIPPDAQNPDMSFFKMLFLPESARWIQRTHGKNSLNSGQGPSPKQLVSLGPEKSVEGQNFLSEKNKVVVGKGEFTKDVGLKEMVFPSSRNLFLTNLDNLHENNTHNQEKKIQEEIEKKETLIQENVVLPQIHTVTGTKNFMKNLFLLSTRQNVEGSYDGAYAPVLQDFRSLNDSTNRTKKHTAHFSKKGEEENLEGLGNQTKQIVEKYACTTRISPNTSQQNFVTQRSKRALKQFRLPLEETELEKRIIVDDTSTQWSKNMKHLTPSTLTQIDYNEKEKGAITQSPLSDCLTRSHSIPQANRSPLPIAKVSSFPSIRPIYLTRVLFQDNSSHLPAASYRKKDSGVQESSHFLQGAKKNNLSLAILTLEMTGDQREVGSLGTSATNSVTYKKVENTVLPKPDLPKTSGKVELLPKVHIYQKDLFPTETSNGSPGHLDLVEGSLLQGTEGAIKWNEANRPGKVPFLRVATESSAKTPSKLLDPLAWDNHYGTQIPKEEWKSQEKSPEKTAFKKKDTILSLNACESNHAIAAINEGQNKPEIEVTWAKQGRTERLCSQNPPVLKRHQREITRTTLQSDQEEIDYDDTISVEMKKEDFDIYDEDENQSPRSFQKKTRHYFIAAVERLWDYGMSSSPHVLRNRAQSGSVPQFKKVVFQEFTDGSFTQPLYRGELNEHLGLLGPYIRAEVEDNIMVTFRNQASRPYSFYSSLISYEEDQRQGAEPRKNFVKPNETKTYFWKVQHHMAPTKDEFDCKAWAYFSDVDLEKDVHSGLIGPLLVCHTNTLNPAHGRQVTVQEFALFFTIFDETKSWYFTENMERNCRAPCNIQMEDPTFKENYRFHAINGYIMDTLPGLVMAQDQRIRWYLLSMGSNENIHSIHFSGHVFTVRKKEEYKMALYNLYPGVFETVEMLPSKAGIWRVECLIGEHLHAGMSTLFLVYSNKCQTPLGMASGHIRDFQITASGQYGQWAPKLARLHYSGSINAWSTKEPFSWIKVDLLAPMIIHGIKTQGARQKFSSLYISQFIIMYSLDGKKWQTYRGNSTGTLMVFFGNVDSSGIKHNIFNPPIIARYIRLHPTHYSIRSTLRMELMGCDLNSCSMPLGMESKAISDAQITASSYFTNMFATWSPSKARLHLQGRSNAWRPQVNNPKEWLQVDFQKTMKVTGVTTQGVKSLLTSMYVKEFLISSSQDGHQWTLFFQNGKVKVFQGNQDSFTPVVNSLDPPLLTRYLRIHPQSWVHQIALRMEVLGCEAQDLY

[7] = target: misfolded H5 of H5N1 strain A/Vietnam/1203/04, cH5-4
[8] = target: T2, crossbeta nOVA, ovalbumin dissolved in PBS at 1.0 mg/mL, P01012
T2 chain: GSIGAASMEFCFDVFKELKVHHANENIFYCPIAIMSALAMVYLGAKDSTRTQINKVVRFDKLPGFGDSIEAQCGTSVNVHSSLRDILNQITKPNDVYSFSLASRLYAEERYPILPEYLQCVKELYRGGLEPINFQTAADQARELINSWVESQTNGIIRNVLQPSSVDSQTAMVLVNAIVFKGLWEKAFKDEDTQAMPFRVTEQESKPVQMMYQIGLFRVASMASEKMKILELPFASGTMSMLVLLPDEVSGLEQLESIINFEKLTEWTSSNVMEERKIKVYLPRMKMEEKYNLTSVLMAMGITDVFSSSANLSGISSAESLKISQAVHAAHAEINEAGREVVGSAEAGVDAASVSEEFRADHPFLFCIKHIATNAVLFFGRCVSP

[9] = target: T3, crossbeta dOVA-2, ovalbumin at 1.0 mg/mL in PBS heated five cycles from 30 to 85 C, P01012
T3 chain: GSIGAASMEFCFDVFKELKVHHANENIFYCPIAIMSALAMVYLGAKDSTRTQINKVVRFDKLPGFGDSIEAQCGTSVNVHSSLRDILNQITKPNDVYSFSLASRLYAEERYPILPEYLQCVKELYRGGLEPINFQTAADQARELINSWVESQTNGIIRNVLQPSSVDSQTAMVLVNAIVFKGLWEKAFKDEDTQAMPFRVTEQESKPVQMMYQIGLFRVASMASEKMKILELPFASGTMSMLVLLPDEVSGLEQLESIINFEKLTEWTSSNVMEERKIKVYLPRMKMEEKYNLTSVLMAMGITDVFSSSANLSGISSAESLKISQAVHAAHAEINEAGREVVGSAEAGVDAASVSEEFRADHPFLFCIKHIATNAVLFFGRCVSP

[10] = target: crossbeta FVIII-5 (cFVIII-5), Helixate kept at 95 C for 5 minutes
crossbeta FVIII-5 (cFVIII-5), Helixate kept at 95 C for 5 minutes, sequence (chain, as listed by the source): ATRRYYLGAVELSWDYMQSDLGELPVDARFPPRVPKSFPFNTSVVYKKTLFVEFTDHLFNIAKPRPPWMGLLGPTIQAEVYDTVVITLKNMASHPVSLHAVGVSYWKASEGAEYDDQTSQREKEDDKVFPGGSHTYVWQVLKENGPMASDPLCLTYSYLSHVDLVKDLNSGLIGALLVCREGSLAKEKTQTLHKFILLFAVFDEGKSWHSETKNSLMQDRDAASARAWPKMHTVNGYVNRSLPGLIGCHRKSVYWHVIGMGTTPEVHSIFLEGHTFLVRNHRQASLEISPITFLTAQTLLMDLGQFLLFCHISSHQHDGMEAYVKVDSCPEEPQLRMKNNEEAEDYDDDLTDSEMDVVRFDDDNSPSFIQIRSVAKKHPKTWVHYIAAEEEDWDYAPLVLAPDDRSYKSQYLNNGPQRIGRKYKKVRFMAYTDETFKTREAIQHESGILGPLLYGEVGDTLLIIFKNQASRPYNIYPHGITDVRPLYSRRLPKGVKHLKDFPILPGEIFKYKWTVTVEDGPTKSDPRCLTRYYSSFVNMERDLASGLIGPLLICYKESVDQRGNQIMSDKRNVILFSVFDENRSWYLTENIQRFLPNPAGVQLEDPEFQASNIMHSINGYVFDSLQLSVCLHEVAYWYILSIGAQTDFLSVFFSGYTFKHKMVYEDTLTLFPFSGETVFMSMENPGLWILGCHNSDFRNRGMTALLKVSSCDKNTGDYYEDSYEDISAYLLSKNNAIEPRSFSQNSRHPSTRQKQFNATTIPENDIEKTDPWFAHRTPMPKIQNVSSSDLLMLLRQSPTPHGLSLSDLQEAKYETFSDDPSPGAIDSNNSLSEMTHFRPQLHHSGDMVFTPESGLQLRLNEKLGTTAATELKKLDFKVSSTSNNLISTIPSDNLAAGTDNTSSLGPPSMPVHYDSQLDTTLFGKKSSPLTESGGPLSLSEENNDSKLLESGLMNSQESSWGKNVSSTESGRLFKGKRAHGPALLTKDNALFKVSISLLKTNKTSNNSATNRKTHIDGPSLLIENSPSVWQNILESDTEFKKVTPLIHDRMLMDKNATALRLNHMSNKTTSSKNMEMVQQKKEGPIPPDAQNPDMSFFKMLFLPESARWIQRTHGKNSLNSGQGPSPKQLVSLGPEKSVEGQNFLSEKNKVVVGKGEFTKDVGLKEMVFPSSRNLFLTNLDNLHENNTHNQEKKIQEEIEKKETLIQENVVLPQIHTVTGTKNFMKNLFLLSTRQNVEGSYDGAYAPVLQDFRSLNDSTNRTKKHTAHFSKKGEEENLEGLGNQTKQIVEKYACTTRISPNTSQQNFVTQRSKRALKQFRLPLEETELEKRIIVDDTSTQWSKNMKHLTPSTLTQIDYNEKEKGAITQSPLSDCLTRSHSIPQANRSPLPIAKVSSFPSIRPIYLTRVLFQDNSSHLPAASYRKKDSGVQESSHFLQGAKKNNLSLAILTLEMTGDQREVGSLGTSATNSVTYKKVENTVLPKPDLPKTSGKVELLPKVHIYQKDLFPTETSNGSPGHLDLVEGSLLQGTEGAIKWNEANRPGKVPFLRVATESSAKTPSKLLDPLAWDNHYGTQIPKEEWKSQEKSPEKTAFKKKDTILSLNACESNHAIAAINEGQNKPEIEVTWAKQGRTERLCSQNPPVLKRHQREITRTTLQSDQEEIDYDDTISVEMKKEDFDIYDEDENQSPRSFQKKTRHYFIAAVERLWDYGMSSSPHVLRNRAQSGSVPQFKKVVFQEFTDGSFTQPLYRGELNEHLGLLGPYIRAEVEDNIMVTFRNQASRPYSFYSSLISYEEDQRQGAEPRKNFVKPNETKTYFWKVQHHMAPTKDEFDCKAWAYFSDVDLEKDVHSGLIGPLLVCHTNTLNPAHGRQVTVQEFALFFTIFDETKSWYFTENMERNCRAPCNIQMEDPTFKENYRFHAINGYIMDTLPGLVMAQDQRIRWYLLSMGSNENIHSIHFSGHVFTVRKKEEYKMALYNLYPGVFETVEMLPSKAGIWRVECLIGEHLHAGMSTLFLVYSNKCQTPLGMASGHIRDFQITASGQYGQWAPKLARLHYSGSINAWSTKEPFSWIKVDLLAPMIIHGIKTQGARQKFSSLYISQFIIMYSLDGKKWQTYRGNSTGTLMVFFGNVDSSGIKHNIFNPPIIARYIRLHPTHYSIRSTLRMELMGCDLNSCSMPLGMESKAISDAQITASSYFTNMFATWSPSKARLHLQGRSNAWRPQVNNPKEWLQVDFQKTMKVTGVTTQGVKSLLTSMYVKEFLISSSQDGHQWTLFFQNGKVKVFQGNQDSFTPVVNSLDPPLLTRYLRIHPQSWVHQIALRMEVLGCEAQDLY

[11] = target: T4, crossbeta dOVA-1, ovalbumin at 5.2 mg/ml in HBS treated with HCl for 40 minutes at 37 C and neutralized, P01012
T4 chain: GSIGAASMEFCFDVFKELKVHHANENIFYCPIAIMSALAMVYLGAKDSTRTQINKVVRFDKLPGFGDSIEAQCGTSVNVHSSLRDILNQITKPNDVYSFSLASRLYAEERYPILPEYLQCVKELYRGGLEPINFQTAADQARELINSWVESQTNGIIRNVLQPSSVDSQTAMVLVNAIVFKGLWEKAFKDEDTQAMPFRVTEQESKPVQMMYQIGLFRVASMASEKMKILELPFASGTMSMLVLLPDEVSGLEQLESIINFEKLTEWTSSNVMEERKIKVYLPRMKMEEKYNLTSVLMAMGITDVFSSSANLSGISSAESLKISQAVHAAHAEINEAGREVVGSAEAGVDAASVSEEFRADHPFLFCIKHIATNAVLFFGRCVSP

[12] = target: crossbeta FVIII-1 (cFVIII-1), Helixate kept at 4 C for 20 hours
crossbeta FVIII-1 (cFVIII-1), Helixate kept at 4 C for 20 hours, sequence (chain, as listed by the source): as the sequence (chain, as listed by the source) above

B1: tissue type plasminogen activator (tPA; Actilyse, Boehringer-Ingelheim) (protein)
chain: SYQVICRDEKTQMIYQQHQSWLRPVLRSNRVEYCWCNSGRAQCHSVPVKSCSEPRCFNGGTCQQALYFSDFVCQCPEGFAGKCCEIDTRATCYEDQGISYRGTWSTAESGAECTNWNSSALAQKPYSGRRPDAIRLGLGNHNYCRNPDRDSKPWCYVFKAGKYSSEFCSTPACSEGNSDCYFGNGSAYRGTHSLTESGASCLPWNSMILIGKVYTAQNPSAQALGLGKHNYCRNPDGDAKPWCHVLKNRRLTWEYCDVPSCSTCGLRQYSQPQFRIKGGLFADIASHPWQAAIFAKHRRSPGERFLCGGILISSCWILSAAHCFQERFPPHHLTVILGRTYRVVPGEEEQKFEVEKYIVHKEFDDDTYDNDIALLQLKSDSSRCAQESSVVRTVCLPPADLQLPDWTECELSGYGKHEALSPFYSERLKEAHVRLYPSSRCTSQHLLNRTVTDNMLCAGDTRSGGPQANLHDACQGDSGGPLVCLNDGRMTLVGIISWGLGCGQKDVPGVYTKVTNYLDWIRDNMRP
tPA mediated plasminogen activation assay [1]: nH5 (140% of standard) | tPA mediated plasminogen activation assay [2]: cH5-1 (50% of standard) | tPA mediated plasminogen activation assay [3]: cH5-3 (200% of standard) | tPA mediated plasminogen activation assay [4]: cH5-2 (150% of standard) | Activation at 10 ug/mL [5]: 60.9% | Activation at 25 ug/mL [5]: 79% | tPA/Plg activation assay, relative crossbeta content compared to a misfolded ovalbumin standard [6]: approximately 50, 75 and 125% | tPA mediated plasminogen activation assay [7]: cH5-4 (37% of standard) | Activation at 10 ug/mL [8]: 48.8% | Activation at 25 ug/mL [8]: 48.1% | Activation at 10 ug/mL [9]: 107% | Activation at 10 ug/mL (row is the reference dOVA-2 at 80, set at 100%) [9]: 100% | Activation at 25 ug/mL [9]: 107% | Activation at 25 ug/mL (row is the reference dOVA-2 at 80, set at 100%) [9]: 100% | tPA/Plg activation assay, relative crossbeta content compared to a misfolded ovalbumin standard [10]: approximately 50, 75 and 125% | Activation at 10 ug/mL [11]: 97.4% | Activation at 25 ug/mL [11]: 136% | tPA/Plg activation assay, relative crossbeta content compared to a misfolded ovalbumin standard [12]: approximately 50, 75 and 125%
